Entries after “also recorded” stand apart in the source; their conditions may differ.
Tests used:
NASH mice = assay: Murine model of non-alcoholic steatohepatitis (NASH; STZ and high fat diet); format: in vivo, mouse
Description: The purpose of this study was to examine the protective effects of endoglin antibodies on a murine model of NASH.
NASH was established by a single subcutaneous injection of STZ (Sigma, USA) after birth and feeding with a high fat diet (HFD; CLEA Japan, Japan) ad libitum after 4 weeks of age (day 28±2).
Randomization of mice into 6 groups of 10 mice was done at 9 weeks of age (day 63±2), the day before the start of treatment.
Group 3 (Positive control; Temlisartan Group): Ten NASH mice were be orally administered pure water supplemented with telmisartan at a dose of 10 mg/kg once daily from day 63 to 84.
Group 4 (Antibody M1043: M1043 Group): Ten NASH mice were intravenously administered vehicle supplemented with Antibody M1043 at a dose of 10 mg/kg twice weekly at day 63, 66, 70, 73, 77 and 80.
Group 5 (Antibody TRC105; TRC105 Group): Ten NASH mice were intravenously administered vehicle supplemented with Antibody TRC105 at a dose of 10 mg/kg twice weekly at day 63, 66, 70, 73, 77 and 80.
Group 6 (Antibody TRC205; TRC205 Group): Ten NASH mice were intravenously administered vehicle supplemented with Antibody TRC205 at a dose of 10 mg/kg twice weekly at days 63, 66, 70, 73, 77 and 80.
Mice in all groups were terminated for the following assays at 12 weeks of age.
H&E staining of liver tissue was conducted to estimate NAFLD Activity score.
Total NAS score represents the sum of scores for steatosis, lobular inflammation, and ballooning, and ranges from 0-8. Diagnosis of NASH (or, alternatively, fatty liver not diagnostic of NASH) should be made first, then NAS is used to grade activity. In the reference study, NAS scores of 0-2 occurred in cases largely considered not diagnostic of NASH, scores of 3-4 were evenly divided among those considered not diagnostic, borderline, or positive for NASH. Scores of 5-8 occurred in cases that were largely considered diagnostic of NASH.
Statistical tests were performed using Bonferroni Multiple Comparison Test. P values<0.05 were considered statistically significant.

human CD105 [1] = biological target: T1, human CD105 (Homo sapiens, UniProt P17813); assay: ELISA binding of biotinylated TRC205 antibody to human CD105; details: from the binding curve
T1 construct: purchased R&D Systems 1097-EN
T1 sequence (P17813 26-586 limits assumed): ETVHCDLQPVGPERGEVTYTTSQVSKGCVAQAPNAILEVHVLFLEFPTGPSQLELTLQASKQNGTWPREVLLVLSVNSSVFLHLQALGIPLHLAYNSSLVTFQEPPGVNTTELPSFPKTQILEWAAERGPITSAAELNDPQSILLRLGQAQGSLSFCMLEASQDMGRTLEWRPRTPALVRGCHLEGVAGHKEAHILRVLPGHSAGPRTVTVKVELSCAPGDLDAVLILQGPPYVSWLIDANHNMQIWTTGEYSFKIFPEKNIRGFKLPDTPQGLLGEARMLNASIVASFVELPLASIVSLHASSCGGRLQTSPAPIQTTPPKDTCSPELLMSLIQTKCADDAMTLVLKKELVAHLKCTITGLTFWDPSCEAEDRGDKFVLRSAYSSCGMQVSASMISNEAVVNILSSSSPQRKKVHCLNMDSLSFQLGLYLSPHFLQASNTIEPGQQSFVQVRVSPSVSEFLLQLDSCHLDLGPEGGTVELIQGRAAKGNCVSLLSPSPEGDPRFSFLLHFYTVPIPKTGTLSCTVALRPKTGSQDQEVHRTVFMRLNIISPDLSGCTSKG
Protocol: An ELISA was established to determine the binding of biotinylated TRC205 antibody to human CD105 as follows: The TRC205 antibody (SEQ ID NO 89/SEQ ID NO 93; IgG4) was biotinylated using a Lightning-Link Biotin Conjugation Kit (Type A) (Innova Biosciences Cat. No. 704-0010) according to the manufacturer's instructions. […] After washing three times with PBST, a three-fold dilution series of biotinylated TRC205 antibody (10 μg/ml to 0.014 μg/ml) in PBST/2% BSA was added in duplicate to the plate. Following incubation for 1 hour at room temperature, the plate was washed three times with PBST and binding of the biotinylated TRC205 antibody was detected using streptavidin-HRP (Sigma Cat. No. 55512) and TMB substrate (Sigma Cat. No. T0440). OD450 nm values were measured on a Dynex MRX TCII plate reader.

human CD105 [2] = biological target: T1, human CD105; assay: Competition ELISA against biotinylated TRC205 antibody for binding to human CD105; details: biotinylated TRC205 55 ng/ml
Protocol: After washing three times with PBST, a three-fold dilution series of either human BMP9 (R&D Systems Cat. No. 3209-BP-010) (413 nM to 0.56 nM), or unlabelled TRC205 antibody (40 nM to 0.05 nM) or a single concentration of an irrelevant antibody (66 nM) was mixed with a fixed concentration of biotinylated TRC205 antibody (55 ng/ml) and added to the plate. Following incubation for 1 hour at room temperature, the plate was washed three times with PBST and binding of the biotinylated TRC205 antibody was detected using streptavidin-HRP (Sigma Cat. No. 55512) and TMB substrate (Sigma Cat. No. T0440). OD450 nm values were measured on a Dynex MRX TCII plate reader.

[3] = liver gene expression, mean ± SD, Normal-Vehicle 1.0

EC50 of binding to human CD105 (human CD105 [1]): 0.046 µg/mL
IC50 of competition with biotinylated TRC205 antibody (human CD105 [2]): 0.26 µg/mL
B1: TRC205: humanized and deimmunized anti-endoglin antibody (SEQ ID NO 89/SEQ ID NO 93; IgG4) (antibody, V domains shown)
VH: EVQLVESGGGLVKPGGSLRLSCAASGFTFSDAWMDWVRQAPGKGLEWVGEARSKASNHATYYAESVKGRFTISRDDSKNTLYLQMNSLKTEDTAVYYCTRWRRFFDSWGQGTLVTVSS
VL: DIQMTQSPSSLSASVGDRATITCRASSSVSYMHWYQQKPGKAPKPWAYATSNLASGVPSRFSGSGSGTDYTLTISSLQPEDFATYYCQQWSSNPLTFGGGTKVEIK
Alpha-smooth muscle actin mRNA expression levels compared with the NASH-Vehicle group (NASH mice; Bonferroni, P<0.05): significantly down-regulated
Liver triglyceride contents compared with the NASH-Vehicle group (NASH mice; Bonferroni, P<0.05): significant decreases
Mean liver-to-body weight ratio compared with the NASH-Vehicle group (NASH mice; Bonferroni, P<0.05): tended to decrease; also recorded: no significant difference
NAS compared with the NASH-Vehicle group (NASH mice; Bonferroni, P<0.05): significant decreases in NAS; also recorded: significant reductions of NAS
Serum alanine aminotransferase (ALT) levels compared with the NASH-Vehicle group (NASH mice; Bonferroni, P<0.05): tended to decrease
Serum alkaline phosphatase (ALP) levels compared with the NASH-Vehicle group (NASH mice; Bonferroni, P<0.05): significant decrease
Serum aspartate aminotransferase (AST) levels compared with the NASH-Vehicle group (NASH mice; Bonferroni, P<0.05): tended to decrease
Tissue inhibitor of metalloproteinase-1 mRNA expression levels compared with the NASH-Vehicle group (NASH mice; Bonferroni, P<0.05): tended to decrease
Tumor necrosis factor-alpha mRNA expression levels compared with the NASH-Vehicle group (NASH mice; Bonferroni, P<0.05): tended to increase
F4/80-positive signals and cells in liver compared with the NASH-Vehicle group (NASH mice; F4/80 immunostaining, macrophage marker): Lower F4/80-positive signals and positive cells
Alpha-SMA mRNA expression (NASH mice; [3]): 1.1 ± 0.3
MCP-1 mRNA expression (NASH mice; [3]): 9.3 ± 9.1
TIMP-1 mRNA expression (NASH mice; [3]): 6.0 ± 2.6
TNF-α mRNA expression (NASH mice; [3]): 6.2 ± 2.4
Liver triglyceride (NASH mice; mean ± SD): 29.3 ± 9.4 mg/g liver
Serum ALP (NASH mice; mean ± SD): 264 ± 63 U/L
Serum ALT (NASH mice; mean ± SD): 28 ± 16 U/L
Serum AST (NASH mice; mean ± SD): 83 ± 41 U/L
Sirius red-positive area (NASH mice; mean ± SD, liver sections): 0.93 ± 0.14%
NAS (NAFLD Activity score) (NASH mice; mean ± SD, range 0-8, 10 mg/kg): 3.6 ± 1.1
Lobular inflammation score 0, number of mice (NASH mice; score 0 = No Foci): 5
Hepatocyte ballooning score 0, number of mice (NASH mice; score 0 = None): 1
Steatosis score 1, number of mice (NASH mice; score 1 = 5-33%): 6
Hepatocyte ballooning score 1, number of mice (NASH mice; score 1 = Few balloon cells): 4
Lobular inflammation score 2, number of mice (NASH mice; score 2 = 2-4 foci/200x): 4
Steatosis score 2, number of mice (NASH mice; score 2 = >33-66%): 3
Hepatocyte ballooning score 2, number of mice (NASH mice; score 2 = Many cells/prominent ballooning): 4
Inflammatory cell infiltration in the liver (NASH mice; summary of lobular inflammation score and F4/80 immunostaining): reductions in inflammatory cell infiltration in the liver

— patent US9926375B2, “Anti-endoglin antibodies and uses thereof” (Tracon Pharmaceuticals, Inc., priority 2014, dated 2018)
